Assay: soluble on expression in E. coli; label from the status in PepcDB or PDB records

Row | Sequence | soluble on expression in E. coli
1 | MDAQTFKTAIVRRRLVDVLMNPELKATLVLKNGLVINVVTREIYPADVAVYDEYILKVGDASDLIGPETEVVDLQGKYYVSPGFIDSHMHFESSMLTISEFSRLSIPSGTTTLVADPHEIGNALGPVGIKAMAEETKVVPNRVYLVVPALTPDCPGLETAGYDITSRDMPEILNYPNVIGIGELQGFSNAKYVYKYTPEIITDLIASTTYAKSIGKIVDGNAPELFGSELAAHLIAAGTEASCHETTTKEECVEKLRYGMYVFMREGSTQKNMAECIRAVTEEGLDSRRLIGATDDMVAEDLAKNGHMNWVVARIIKQGIDPVEAIQMVTINPATYFGLKHVGVLAPGKMADIVVISDLMDMKVEKVYIGGKLVAEKGKMVVNIPKYTYPEEVKHSVKCKPVTAEALEIKATGSNAVVRTIGLIPDQNLTESFEFTVPVSGGVAQPDLTQDVLPIAVVERYGRNGSIGRAFVRGFGLKGGAFAESVSHDAHNIIVVGTSYQDMALAVNRVIEMGGGVAVVKNGRVLGDLRLPVGGLITDELDGYELSRKIAELHRLTAVELGCTVHAPFMHLSFLALTTSPKWKITDQGLIDVNSFAIIPPVK | soluble
2 | MSLGVTMHDVAKAAGVSAITVSRVLNQPQQVSEQLREKVMQAVDALAYVPSRSASTLASAKSRTVLVLIPSLANTVFLETLTGIETVLDAAGYQMLIGNSHYDAGQELQLLRAYLQHRPDGVLITGLSHAEPFERILSQHALPVVYMMDLADDGRCCVGFSQEDAGAAITRHLLSRGKRRIGFLGAQLDERVMKRLDGYRAALDAADCRDAGLEWLDPQPSSMQMGADMLDRALAERPDCDALFCCNDDLAIGALARSQQLGIAVPERLAIAGFNDLQPAAWCTPPLTTVATPRRDIGVHAAKALLQLIDGEEPASRRADLGFRLMLRRSSEGHHHHHH | soluble
3 | MAHHHHHHMANAELVDAGCFITQMNELLLIDPLYLNCAMTNYCNSYLSGKEELLPRERLNGIYFKNAKPGLWSSFAIRENSQAHLKKTAKQETETDAANRNDKNTYNNIRNEMVLSFVCFNNTNYMHQYLTVEEVDKLHWERMEPSEGHPGVGPTDKCSSTVDGDSKNEKVANFHNDRSELLPLENYFTNVLTIESGQAGLFCIDSIKNSADLLFQKHGMKNISSREQLDILFNQNMNDLYPWFDQICNLTMTSSVAVVDFMGMPIGCVCLSSSDCVVNYLCEVVRDEVTDEVWAIRVNFLAPLK | not soluble
4 | MGSDKIHHHHHHMQALRKCYGIVGADDIVSEMKTWQVTSNDPHEGLTKWADGLDEAFVQLEPVATTGDGFYGHIQQTSTAELDVSVVTSTGHEIRRLDRHIRHRSADLLYVNILGRGRSEVSQRDTVVAAPMDVSIVDPRAPYSIRQEAPFQLVSIAVPPDWVEREARHCHFLSRTAAGRELSSVVWGLAKMLLAIKPDQDGLATSLAQQIHHSLALLPEMAGSDATPRVSVAMLQSYVQRHFSQPDLRAEHLARQFGISVRRVHQLFEPTGHTVSEFINDLRLARAADCLGDAALARRTISEIAWQVGYSDPSYFTRRFKRRYGCSPRAYRAAHHPAPIARLS | not soluble
5 | MKCPFCNPIKENILYEDDTIRILLDNYPANPGHLLIVPRRHVTKLEELSEGEKASLLRGIEIAIEALKKTLNPDGFNVGINIGKAAGQTVEHLHIHVIPRFNNDCKYPKGGIRKAVLDVKDENLEDEERWTKNRLPREKVEELRRALHGG | soluble
6 | KKISQYACQRRTTLNNYNQLFTDALDILAENDELRENEGSCLAFMRASSVLKSLPFPITSMKDTEGIPCLGDKVKSIIEGIIEDGESSEAKAVLNDERYKSFKLFTSVFGVGLKTAEKWFRMGFRTLSKIQSDKSLRFTQMQKAGFLYYEDLVSCVNRPEAEAVSMLVKEAVVTFLPDALVTMTGGFRRGKMTGHDVDFLITSPEATEDEEQQLLHKVTDFWKQQGLLLYCDILESTFEKFKQPSRKVDALDHFQKCFLILKLDHGRVHSEKSGQQEGKGWKAIRVDLVMCPYDRRAFALLGWTGSRQFERDLRRYATHERKMMLDNHALYDRTKRVFLEAESEEEIFAHLGLDYIEPWERNA | soluble
7 | PWLENVQVQLSDLFSELKYNSVSGSGKIGIMASGVSALYVKEAVKGFEELFTLFRVGTVYPFPEKAALSFLKGIEKLIVVEELDPYLEEQALQLIGRAHLPADVYGKKNGFFPVSGEYNVDIIIDCINKVLAELGETSRLSHSAPAIPRSGLPPLPVRAPTLCAGCMHRTVFYAFKQASKQLKKDFQVETIFSGDIGCYTLGNAHPLNMVDTCLCMGAGMSIAGGLSRANPGVKQVAFIGDSTFFHSGIPAVINAVYNGSDVTLAVLDNRTTAMTGHQTHPGIGVTVLGSPSKAVDISDVIRSCGVELVRSVDIDSLENSLEGCIEAAKEAVEFKGPSAVVFKGKCVGITKPVIRFEIDTESCTGCGLCVKQLGCPALFLPAGEEKPVIQDSCSGCGLCAQVCPSGAIIETGVK | not soluble
8 | MLLSKKSEYKTLSTVEHPQYIVFCDFDETYFPHTIDEQKQQDIYELEDYLEQKSKDGELIIGWVTGSSIESILDKMGRGKFRYFPHFIASDLGTEITYFSEHNFGQQDNKWNSRINEGFSKEKVEKLVKQLHENHNILLNPQTQLGKSRYKHNFYYQEQDEINDKKNLLAIEKICEEYGVSVNINRCNPLAGDPEDSYDVDFIPIGTGKNEIVTFMLEKYNLNTERAIAFGDSGNDVRMLQTVGNGYLLKNATQEAKNLHNLITDSEYSKGITNTLKKLIGFMRRKLEHHHHHH | soluble
9 | RLKNPKIKQGGEWMDVDWKTALEYVRSAIECIAKDGNQNQVGVWANPMNTVEELYLAKKFADGLGVKNFATRLRQQDKRLSDGLKGAQWLGQSIESLADNDAVLVVGANLRKEQPLLTARLRRAAKDRMALSVLAGSKEELFMPLLSQEAAHPDEWAGRLKNLSADAEHAVTASLKNAEKAAVILGAEVQNHPDYAAIYAAAQELADATGAVLGILPQAANSVGADVLGVNSGESVAEMANTPKQAVLLLNVEPEIDTVDGAKAVAALKQAKSVMAFTPFVSETLLDVCDVLLPIAPFTETSGSFINMEGRLQSFHGVVQGFGDSRPMWKVLRVLGNLFDLKGFEYHDTAAILKDALD | not soluble
10 | MSLNNDRFAKQRVADDLDEPVEEAGNLARKLGLKPYPVNYWIVDYDEMNELIAYGGFQQRYPHWRWGMQYDRQQKQGQFLGGKAFEIVNNDDPAHAFLQESNTLADQKAVITHVEAHADFFANNEWFRMFTDGSSRTTTDESGEDRRRGPDAAGMLARHGDTIQEYMQDPDIERAEVERFIDHVLCLEDNIDQHIPYSPVETVPEEFEDIEGADVTEQLDDLELSEEVKRQVFDEEWLDAQRDDDENVTFPAEPDKDVLGFLRKHGMQYDADAERATEMEDWQIELLELLRREAYYFAPQKMTKVMNEGWASYWESLMMTGEQFAGDDEFILYSDHMSKVLGSGGLNPYSLGLEIWEYVENTENRREVIERLLRVKGITWRNFDDSVDYEMVQGRESHNDVTFLDEFLTQEFVDDNDYFTYEYTHASGDYRVTSTDHEDVKKKLMLQFTNFGKPTVVVEDGNYQNRNELLLAHQYNGVMLDIGQAKEVLKRTFELWGRPVNLLTIVKEFDDHDVEVAKREGHHHHHH | not soluble
11 | SMPNHQKVVLVGDGAVGSSYAFAMAQQGIAEEFVIVDVVKDRTKGDALDLEDAQAFTAPKKIYSGEYSDCKDADLVVITAGAPQKPGESRLDLVNKNLNILSSIVKPVVDSGFDGIFLVAANPVDILTYATWKFSGFPKERVIGSGTSLDSSRLRVALGKQFNVDPRSVDAYIMGEHGDSEFAAYSTATIGTRPVRDVAKEQGVSDDDLAKLEDGVRNKAYDIINLKGATFYGIGTALMRISKAILRDENAVLPVGAYMDGQYGLNDIYIGTPAIIGGTGLKQIIESPLSADELKKMQDSAATLKKVLNDGLAELENK | soluble
12 | MVEPGRIGGNQTRLAAVLLDVSTPNTLNADFDLMRSVAGITDARNEEIRAMLQAFIGRMSGVPPSVWGGLAAARFQDVVDRWNAESTRLYHVLHAIADTIRHNEAALREAGQIHARHIAAAGGDL | soluble
13 | MSLDFKAIQALTANDMAKVNETIHAQLNSDVSLINQLGFYIISGGGKRLRPLLAVLSAKALGYQGSHHTTAAAFIEFIHTATLLHDDVVDESDLRRGKATANAAFGNAASVLVGDFIYTRSFQMMTELGSMKILKLMSDAVNVIAEGEVQQLMNCNDPDTTEASYMQVIYSKTARLFEAATQIGAILCDASPEVELAMQNYGKYLGTAFQLIDDVMDYTSDGDEMGKNVGDDLAEGKPTLPLLYAMQHGNPEQAAMIREAIEKANGMSRLNEILAAMEQTGSLQYTIEKALHEADKAIAELAILPESEYKQALITLAHMAVNRSKEGHHHHHH | soluble
14 | KSIHDAGQRVQIYFSDAAGLVAGRTTIRYQGLEVGMVRDINLSEDLGSIYVDADIYPEATKLLNDKTRFWLVKPTASLTGVSGLDALVSGNYISIQPGDGQEFETTFHALDSAPTDLRVSQGLNIKLKSRDLGGVSIGSQIVYKKIPIGAVYSYQLDEDAKSITIQANIQEQYRHIINDRSRFWNVSGIGASIGFEGVDVRLESMSALLGGAIAVDSPDDGEPVEENTEFRLYKDLKTAGRGIAIKIALPDDNKVSSEGAPIMYRGIEIGQVTDLSLSEGREVILASAAIQPAFSDMLTTGTRFVLEEAKVSLSGVENIANLVRGNFLTIVPGDGERSRRFTAIRKNVFNQQQEKSIAIRLISDNSFGLDSGAN | not soluble
15 | REVLARDREVLRSVYGILVQAHYRNTPDDLLAMLESPHHRIYALEADGTPVAVADVVLEGPDVEEEARIALERLLYMAGSPGSGVVSWRVSRIAVHEDLQRRGLGSRLLRHVEAQARESGASLVTTMFSRHDVIPFWLKNGFKPFYVSPRYNRVTGEKNVALAKPLDSAGA | not soluble
16 | QPTAQQQLTKPAKITCANCKKPLQKGQTAYQRKGSAHLFCSTTCLSSFS | soluble
17 | MIGKKSFQTNVYRMSKFDTYIFNNLYINDYKMFWIDSGIAKLIDKNCLVSYEINSSSIILLKKNSIQRFSLTSLSDENINVSVITISDSFIRSLKSYILGDLMIRNLYSENKDLLLWNCEHNDIAVLSEVVNGFREINYSDEFLKVFFSGFFSKVEKKYNSIFITDDLDAMEKISCLVKSDITRNWRWADICGELRTNRMILKKELESRGVKFRELINSIRISYSISLMKTGEFKIKQIAYQSGFASVSYFSTVFKSTMNVAPSEYLFMLTGVAEK | soluble
18 | MDVSLPCIKIQVQTRYIEEQSNPEYQRFVFAYLITIKNLSSQTVQLMSRRWLITDADGKQTVVEGDGVVGEQPRIKANDEYTYSSGTALDTPVGVMQGQYLMIDEQGESFTVEIEPFRLAVPHVLNLEHHHHHH | soluble
19 | MGSDKIHHHHHHMIEYYNFNKSELEKHSRIPLIVKKNNEEIFISLALEMVELIKENNEKNEKTVIICPVGPVGQYPHFVRLVNQFKIDLSNVWFINMDEYLLEDLHWIDVVHPLSFRGFMQKNVYSQIHPTLIMSEEQRIFPDPLDIDSISNKIKELGKIDLCIGGIGLNGHIAFNEPDSTLTVQEFLKLGSRVLPISVETKVMNGLTVLKGAVEEVPNYCVTIGMSEIFQAKKIRLAVFRDWHHAVIRKTVCSKPDTGFPSTLMQIHTNCSIYLNESLAN | not soluble
